Assay results taken from patent US8562982B2, “Use of platelet activating factor acetylhydrolase as a biomarker for anaphylaxis” (Allertech Laboratory Inc., priority 2007, dated 2013).

Experiment: Stability of PAF-AH in serum (storage temperatures, freeze-thaw cycles)
Type: physicochemical, human
Method: Sera may have been stored under differing conditions, subjecting PAF-AH to thermal stresses. In order to evaluate the effect of handling and storage conditions on PAF-AH activity, serum samples were subjected to a range of temperatures and freeze-thaw cycles and assayed for residual PAF-AH activity as detailed below.
The final concentration of the substrate was 160 μM. […] The reaction was stopped in an ice bath.
Serum samples from individuals with fatal peanut anaphylaxis and from various control groups may have been stored under differing conditions, subjecting PAF-AH to thermal stresses. In order to evaluate the effect of handling and storage conditions on PAF-AH activity, sera were stored at different temperatures. The stability of PAF-AH stored at 4° C. and 23° C. and subjected to repeated cycles of freeze-thawing was assessed. PAF-AH levels were measured at specified times following storage at 23° C. (2, 4, 8, 24 and 48 hours) and at 4° C. (5 and 10 days) and following 5 sequential cycles of freezing and thawing. To assess the stability of PAF-AH to long term storage, serum samples stored at −70° C. since 1998 were re-assayed for PAF-AH and compared to results of assay results prior to storage.

B1: PAF-AH: the enzyme that degrades PAF; endogenous serum enzyme measured as biomarker (protein, UniProt Q13093 22-441, looked up)
Platelet-activating factor …: FDWQYINPVAHMKSSAWVNKIQVLMAAASFGQTKIPRGNGPYSVGCTDLMFDHTNKGTFLRLYYPSQDNDRLDTLWIPNKEYFWGLSKFLGTHWLMGNILRLLFGSMTTPANWNSPLRPGEKYPLVVFSHGLGAFRTLYSAIGIDLASHGFIVAAVEHRDRSASATYYFKDQSAAEIGDKSWLYLRTLKQEEETHIRNEQVRQRAKECSQALSLILDIDHGKPVKNALDLKFDMEQLKDSIDREKIAVIGHSFGGATVIQTLSEDQRFRCGIALDAWMFPLGDEVYSRIPQPLFFINSEYFQYPANIIKMKKCYSPDKERKMITIRGSVHQNFADFTFATGKIIGHMLKLKGDIDSNVAIDLSNKASLAFLQKHLGLHKDFDQWDCLIEGDDENLIPGTNINTTNQHIMLQNSSGIEKYN
For B1, the “residual PAF-AH activity” value (6 fresh sera, 5 freeze-thaw cycles, relative to fresh sera) was 90-105%, the “mean PAF-AH activity” value (fresh sera in 1998 (n=25), before storage) was 27.04 ± 9.92 nmol/mL/min and the “mean PAF-AH activity” value (same sera after eight years at −70° C. (p=0.1047)) was 22.98 ± 7.23 nmol/mL/min. The “retained initial PAF-AH activity” value (sera stored at 4° C. for 10 days) was 96-102% and the “retained PAF-AH activity of fresh sera” value (sera stored at 23° C. for up to 48 hours) was 84-92%.
